These are literature values, as cited in article PMC4788383.

Data set [1] addresses RNA polymerase II CTD peptide CTD (Homo sapiens) (UniProt P24928).
Data set [2] shares this target. The source holds these as a separate data set.

pKd: −log10 of the molar value. Where two headings read alike, the source gives them in different places.

On to Pin1 (from UniProt Q13526), for which the pKd (commonly the negative decadic logarithm of the Kd, by convention in mol/L) in data set [1] is 4.52; in data set [2], 4.21.
